Patent US20190322984A1 (MUSC FOUNDATION FOR RESEARCH DEVELOPMENT, published 2019)

Target: T1, mouse IL-2Rα on mouse effector CD8+ T cells (mouse, UniProt P01590 22-268)
T1 construct: whole, on cells; also called mIL-2Rα; CD25
T1 sequence (looked up): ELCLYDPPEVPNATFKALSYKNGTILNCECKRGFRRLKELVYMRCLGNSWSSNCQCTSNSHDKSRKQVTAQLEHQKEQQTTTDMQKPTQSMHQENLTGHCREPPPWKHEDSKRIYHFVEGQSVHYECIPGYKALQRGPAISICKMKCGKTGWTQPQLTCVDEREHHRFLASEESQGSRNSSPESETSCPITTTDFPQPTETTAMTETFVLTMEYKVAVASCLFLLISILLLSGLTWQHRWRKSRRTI
Experiment: flow cytometry, surface IL-2 staining of mIL-2-pulsed polyclonal effector CD8+ T cells
Experimental: FIGS. 3a-3g—IL-2Rα facilitates sustained IL-2 signaling through creation of an extracellular reservoir and recycling. (a) Presence of IL-2 on the surface of polyclonal T cells depends on IL-2Rα. Polyclonal effector CD8⁺ T cells were pulsed for 2 hours with or without mIL-2. Prior to (and during) the pulse, T cells were incubated with anti-IL-2Rα mAb (PC61). Cells were then washed and stained for surface IL-2. (b) Time course of surface IL-2 on polyclonal T cells after reculture at 37° C. (c) Levels of pSTAT5 in Tc1 cells that were pulsed with IL-2, washed, and recultured at 37° C. with or without anti-IL-2 mAb (clone S4B6 or 1A12). (d) Recycling of IL-2 on effector T cells. Pmel-1 Tc1 cells were incubated with hIL-2 or mIL-2 at 37° C. for 2 hours. As indicated, cells were then acid washed and recultured at 37° C. for 90 minutes in the presence of anti-hIL-2 mAb conjugated to Alexa647. Cells were then washed, fixed, and assayed by flow cytometry. (e) Recycling of IL-2 on pulsed cells while mixed with non-pulsed cells. Pmel-1 Tc1 cells were pulsed with hIL-2 at either 4° C. or 37° C. for 2 hours, and then acid washed. Cells were then mixed with non-pulsed CFSE-labeled Tc1 cells. The mixed cells were recultured at 37° C. for 45 minutes in the presence of anti-hIL-2 mAb conjugated to Alexa647. Cells were then washed, fixed, and assayed by flow cytometry. […]

B1: Mouse (m) IL-2 (ligand, UniProt P04351 21-169, looked up)
chain: APTSSSTSSSTAEAQQQQQQQQQQQQHLEQLLMDLQELLSRMENYRNLKLPRMLTFKFYLPKQATELKDLQCLEDELGPLRHVLDLTQSKSFQLEDAENFISNIRVTVVKLKGSDNTFECQFDDESATVVDFLRRWIAFCQSIISTSPQ
notes: Bought recombinant cytokine; used at 200 ng/ml in pulse assays; also called mouse IL-2
B1: binds.
